Experimental findings from patent US20020102709A1 are described below.

Test [1] has as its target bovine serum albumin (BSA, Sigma) (bovine) (UniProt P02769). Description: ELISA, serum albumin coated, FNCBD-EGF (concentration not given), detection with anti-FNCBD monoclonal antibody.
Test [2] shares this target. Description: ELISA, serum albumin coated, 0.1 µg/ml FNCBD-FGF, detection with anti-FNCBD monoclonal antibody. On the technique in general: ELISA stands for enzyme-linked immunosorbent assay.

Chain of UniProt P02769 (P02769 25-607 limits assumed): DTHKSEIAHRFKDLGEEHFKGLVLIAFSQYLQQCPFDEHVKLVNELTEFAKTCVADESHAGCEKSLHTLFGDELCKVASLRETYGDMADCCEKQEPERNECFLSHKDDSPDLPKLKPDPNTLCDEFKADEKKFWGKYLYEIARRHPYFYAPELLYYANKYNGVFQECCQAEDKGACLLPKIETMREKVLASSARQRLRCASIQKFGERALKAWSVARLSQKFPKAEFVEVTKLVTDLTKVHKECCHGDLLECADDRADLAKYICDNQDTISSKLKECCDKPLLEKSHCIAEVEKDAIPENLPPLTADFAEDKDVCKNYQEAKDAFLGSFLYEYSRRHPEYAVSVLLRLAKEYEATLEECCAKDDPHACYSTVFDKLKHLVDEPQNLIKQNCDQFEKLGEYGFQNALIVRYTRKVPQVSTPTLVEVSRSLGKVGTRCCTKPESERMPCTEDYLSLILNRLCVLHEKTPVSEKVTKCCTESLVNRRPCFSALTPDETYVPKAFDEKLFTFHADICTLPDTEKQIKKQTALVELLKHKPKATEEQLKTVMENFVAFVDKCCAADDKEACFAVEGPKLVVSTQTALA

“human FNCBD/human EGF hybrid polypeptide (FNCBD-EGF)” gave an absorption at 492 nm (absorption (492 nm)) in test [1] of 0.11.

“human FNCBD/human bFGF hybrid polypeptide (FNCBD-FGF)” returned an absorption at 492 nm (absorption (492 nm)) in test [2] of 0.27.
